Test results as given in PMC9284731.

How the values were obtained:
[1] = tested on: RBP10 fragment with no residues C-terminal to the RRM (Trypanosoma brucei); assay: EMSA; conditions: binding buffer for gel shifts not in material (only protein buffers: elution 50 mM NaH2PO4, 300 mM NaCl, 250 mM imidazole, pH 8.0); sometimes dialyzed to 10 mM …; scale: affinity relative to P1
[2] = tested on: RBP10 fragment with only 10 residues C-terminal to the RRM (Trypanosoma brucei); assay: EMSA; conditions: binding buffer for gel shifts not in material (only protein buffers: elution 50 mM NaH2PO4, 300 mM NaCl, 250 mM imidazole, pH 8.0); sometimes dialyzed to 10 mM …; scale: affinity relative to P1

Substance	binding signal [1]	binding signal [2]
probe with two copies of UA(U)6	< 0.1	< 0.1
probe with two copies of UACUCUCU (mutant)	< 0.1	< 0.1
